According to patent US20240002477A1 (UNIVERSITY OF CHICAGO, published 2024):

B1: S144-208 (antibody, V domains shown)
VH: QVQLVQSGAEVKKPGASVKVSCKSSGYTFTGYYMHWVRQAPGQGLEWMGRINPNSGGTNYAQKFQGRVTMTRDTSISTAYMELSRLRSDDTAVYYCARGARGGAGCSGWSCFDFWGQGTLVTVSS
VL: QSALTQPRSVSGSPGQSVTISCTGTSSDVGGYKYVSWYQQHPGKAPKLMIYDVSKRPSGVPDRFSGSKSGNTASLTISGLQAEDEGDYYCCSYAGTYSLVFGGGTKVTV
B2: S144-175 (antibody, V domains shown)
VH: QVQLVQSGAEVKKPGASVKVSCKASGYTFTGYYMHWVRQAPGQGLEWMGRINPNSGGTNFAQRFQGRVSMTRDTSISTAYMELSSLRSDDTAVYYCARGAKFEHLPFDIWGQGTMVTVSS
VL: QSMLTQPPSASGTPGQRVTISCSGSSSNIGSNYVYWYQQLPGTAPKLLIYRNNQRPSGVPDRFSGSKSGTSASLAISGLRSEDEADYYCAAWDDRRWVFGGGTKLTVL
B3: S144-741 (antibody, V domains shown)
VH: QVHLVQSGAEVKKPGASVKVSCKASGYTFTGYYMNWVRQAPGQGLEWMGRINPNSGGTNYAQKFQGRVTMTRDTSISTAYMELSRLRSDDAAVYYCARAERYSSSWYNLYYWGQGTLVTVSS
VL: not shown
B4: S144-588 (antibody, V domains shown)
VH: QLQLQESGPGLVKPSETLSLTCTVSGGSISSSSYYWGWIRQPPGKGLEWIGSIYYSGSTYYNPSLKSRFTISVDTSKNQFSLKLSSVTAADTAVYYCAAYQRKLGYCRGNSCFSCFDPWGQGTLVTVSS
VL: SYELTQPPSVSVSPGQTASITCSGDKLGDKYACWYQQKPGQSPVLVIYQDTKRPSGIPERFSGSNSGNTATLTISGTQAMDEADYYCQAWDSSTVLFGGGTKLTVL
B5: S144-843 (antibody, V domains shown)
VH: QVQLVESGGGVVQPGGSVRLSCAASGFDFTNNGMYWVRQAPGKGLEWVAFIRYDGNKQDYADSVKGRFTISRDNSKNTLYLQMSSLRPEDTAVYYCAKGVYTENYGWGQGTLVTVSS
VL: EIVLTQSPGTLSLSPGERATLSCRASQTVTSRYLAWYQQKPGQAPRLLIYGASTRATGIPDRFSGSGSGTDFTLTISRLEPEDFAVYYCQQYGNSPPYTFGQGTKLEIK
B6: S144-67 (antibody, V domains shown)
VH: EVQLVQSGAEVKKPGESLKISCKGSGYSFTTYWIAWVRQMPGKGLEWVGIIYPDDSDTRYSPSFQGQVTISADKSIGTAYLQWSSLKASDTAMYYCARGQYYDFWSGAGGVDVWGQGTTVTVSS
VL: QSVLTQPPSVSGAPGQRVTISCTGSRSNIGAGYDVQWYQQVPGTAPKLLISGNSNRPSGVPDRFSGSKSGTSASLAITGLQAEDEADYYCQSYDSSLSGLRVFGGGTKLTVL
B7: S144-466 (antibody, V domains shown)
VH: EVQLVQSGAEVKKPGESLKISCKGSGYRFTRYWIGWVRQMPGKGLEWMGIIYLGDSETRYSPSFQGQVTISADNSISTAYLQWSSLKASDTAMYYCARSSNWNYGDYWGQGTLVTVSS
VL: DIQMTQSPSTLSASVGDRVTITCRASQSITSWLAWYQQKSGKAPKLLIYDASSLESGVPSRFSGSGSGTEFTLTISSLQPDDFATYYCQQYNSYPWTFGQGTKVEIK
B8: S144-1079 (antibody, V domains shown)
VH: QVQLVQSGAEVKKPGSSVKVSCKASGDTFGSYSITWVRQAPGQGLEWMGRIIPVLGIANYAQKFQGRVTITADKSTSTAYMELSSLRSEDTAVYYCAGGGCSGGNCYSWYNWFDPWGQGSLVTVSS
VL: EIVLTQSPGTLSLSPGERATLSCRASQSVSSNYLAWYQQKPGQAPRLLIYGASSRATGIPERFSGSGSGTDFTLTISRLEPEDFAVYYCQQYGRSPYTFGQGTKLEIK
B9: S144-69 (antibody, V domains shown)
VH: EVQLVQSGAEVKKPGESLKISCKGSGYSFTSYWIGWVRQMPGKGLEWMGIIYPGDSDTRYSPSFQGQVTISADKSITTAYLQWSSLKASDTAMYYCARTQTTNWFDSWGQGTLVTVSS
VL: DIQMTQSPSTLSVSVGDRVTITCRASQSVSSWLAWYQQKPGKAPKLLIYDASSLESGVPSRFSGSGSGTEFTLTISSLQPDDFATYYCQQYNSFYTFGQGTKLEIK
B10: S144-509 (antibody, V domains shown)
VH: EVQLVQSGAEVKKPGESLKISCKGSAYTFTTYWIGWVRQMPGKGLEWMGIIYPGDSDTRYSPSFQGQVTISADKSISTAYLQWSSLKASDTAMYYCARLLLVAGPFDYWGQGTLVTVSS
VL: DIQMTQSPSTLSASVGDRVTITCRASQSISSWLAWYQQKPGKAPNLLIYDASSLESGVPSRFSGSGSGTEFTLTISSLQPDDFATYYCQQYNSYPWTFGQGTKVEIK
B11: S24-1378 (antibody, V domains shown)
VH: EVQLVESGGGLVQPGGSLRLSCAASGFTVSSNYMSWVRQAPGKGLEWVSVIYSGGSTYYADSVKGRFTISRHNSKNTLYLQMNSLRAEDTAVYYCAREGYCTNGVCYRHAFDIWGQGTMVTVSS
VL: QTVVTQEPSFSVSPGGTVTLTCGLSSGSVSTSYYPSWYQQTPGQAPRTLIYSTNTRSSGVPDRFSGSILGNKAALTITGAQADDESDYYCVLYMGSGISVFGGGTKLTVL
B12: S24-278 (antibody, V domains shown)
VH: QVQLVQSGAEVKKPGASVKVSCKASGYTFTGYYMHWVRQAPGQGLEWMGWINPNSGDTNYAQKFQGWVTMTRDTSLSTAYMELSRLKSDDTAVYYCARVGVGEYSGRHYYYYGMDVWGQGTTVTVSS
VL: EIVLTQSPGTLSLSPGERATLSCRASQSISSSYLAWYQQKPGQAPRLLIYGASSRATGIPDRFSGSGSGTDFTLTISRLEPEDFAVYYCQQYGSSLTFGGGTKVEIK
B13: S144-1299 (antibody, V domains shown)
VH: QVQLQESGPGLVKPSETLSLTCTVSGGSISSYYWSWIRQPPGKGLEWIGYINYRGITNYNPSLKSRVTISVDMSKNQFSLKLSSVTAADTAVYSCARLAVASRGTVDYWGQGTLVTVSS
VL: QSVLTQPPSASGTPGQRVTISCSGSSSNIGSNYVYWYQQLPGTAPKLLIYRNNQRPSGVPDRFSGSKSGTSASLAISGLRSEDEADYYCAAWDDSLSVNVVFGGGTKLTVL
B14: S564-287 (antibody, V domains shown)
VH: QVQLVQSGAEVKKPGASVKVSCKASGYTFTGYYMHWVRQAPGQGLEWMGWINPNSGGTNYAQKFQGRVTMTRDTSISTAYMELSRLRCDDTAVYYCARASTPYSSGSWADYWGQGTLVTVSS
VL: QSALTQPASVSGSPGQSITISCTGTSSDVGGYNYVSWYQQHPGKAPKLMIYDVSNRPSGVSNRFSGSKSGNTASLTISGLQAEDEADYYCSSYASSSTWVFGGGTKLTVL
B15: S564-152 (antibody, V domains shown)
VH: QVQLVESGGGVVQPGRSLRLSCAASGFTFSYYGMHWVRQAPGKGLEWVAVIWYDGSNKHYADSVKGRFTISRDNSKNTLYLQMNSLRAEDTAVYYCAKNAAPYCSGGSCYGTYFDYWGQGTLVTVSS
VL: DIQMTQSPSSLSASVGDRVTITCQASQDINNYLNWYQQKPGKAPKLLIYDASNLETGVPSRFSGSGSGTDFTFTISSLQPEDIATYYCQQYDNVPPHTFGQGTKLEIK
B16: S564-14 (antibody, V domains shown)
VH: EVQLVESGGGLVQPGGSLRLSCAASGLTFSSYWMSWARQAPGKGLEWVANIKKDGSEKYYVDSVKGRFTISRDNAKNSLYLQMNSLRVEDTAVYYCASEPPHYGGNSGAEYFQHWGQGTLVTVSS
VL: SYVLTQPPSVSVAPGKTARITCGGNNIGSKSVHWYQQRPGQAPVLVIYYDSDRPSGIPERFSGSNSGNTATLTISRVEAGDEADYYCQVWDSSSDHHYVFGTGTKVTVL
B17: S564-138 (antibody, V domains shown)
VH: QVLLVQSGAEVKKPGASVKVSCKASGYTFTGYYLHWVRQAPGQGLEWMGWINPISGGTNYAQNFQDRVTMTRDTSIITAYMELSRLRSDDTAVYYCARLAYYYDSSAYRGAFDIWGQGTMVTVSS
VL: QSALTQPASVSGSPGQSITISCTGTSSDVGGYNYVSWYQQHPGKAPKLMIYEVSNRPSGVSDRFSGSKSGNTASLTISGLQAEDEADYYCSSYTSSSTYVFGTGTKVTVL
B18: S144-1406 (antibody, V domains shown)
VH: QVQLVQSGAEVKKPGASVKVSCKASGYTFTTYAMHWVRQAPGQRLEWMGWINAGNGNTKYSQNFQGRVTITRDTSASTAYMELSSLRSEDTAVYYCASLVGGDSSSWYDYMDVWGKGTTVTVSS
VL: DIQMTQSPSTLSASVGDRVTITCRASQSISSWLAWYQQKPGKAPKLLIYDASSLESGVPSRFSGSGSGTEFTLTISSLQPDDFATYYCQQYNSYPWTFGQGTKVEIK

target: T1, SARS-CoV-2 open reading frame 8 protein (SARS-CoV-2, UniProt P0DTC8 16-121)
T1 construct: domain: Ig-like domain; also called ORF8
T1 sequence (P0DTC8 16-121, tags left off): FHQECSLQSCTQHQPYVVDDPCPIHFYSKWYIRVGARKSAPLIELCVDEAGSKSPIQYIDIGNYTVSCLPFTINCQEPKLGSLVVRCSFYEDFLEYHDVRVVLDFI

Row | Binder | binding result
1 | B1 | binds
2 | B2 | binds
3 | B3 | binds
4 | B4 | binds
5 | B5 | binds

target: SARS-CoV-2 spike receptor binding domain (SARS-CoV-2, UniProt P0DTC2 319-541)

Row | Binder | binding result
6 | B6 | binds
7 | B7 | binds
8 | B8 | binds
9 | B9 | binds
10 | B10 | binds

target: T2, SARS-CoV-2 open reading frame 8 (ORF8) protein (SARS-CoV-2, UniProt P0DTC8 16-121)
T2 construct: domain: Ig-like domains; also called ORFS [sic]
T2 sequence (P0DTC8 16-121, tags left off): as above

Row | Binder | binding result
11 | B11 | binds
12 | B12 | binds

target: T3, SARS-CoV-2 open reading frame 8 protein (SARS-CoV-2, UniProt P0DTC8 16-121)
T3 construct: domain: Ig-like domain; also called ORF8
T3 sequence (P0DTC8 16-121, tags left off): as above

Row | Binder | binding result
13 | B13 | binds
14 | B14 | binds

target: SARS-CoV-2 spike receptor binding domain (SARS-CoV-2, UniProt P0DTC2 319-541); remark: another data set of the same source

Row | Binder | binding result
15 | B15 | binds
16 | B16 | binds
17 | B17 | binds
18 | B18 | binds
